Source: the supplement of paper PMC10567573
± gives the standard deviation.

Test: protein stability index of a GFP-peptide fusion (GPS, HEK-293T) (PSI 1-6); higher = more stable
[1] = treatment: DMSO, c terminus: a fixed tail appended
[2] = treatment: MLN4924 1 uM, 8 h, c terminus: a fixed tail appended
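Also: 24-mer peptide tiles fused after GFP, lentivirally expressed, FACS-sorted into six equal bins by GFP/DsRed ratio, decoded by Illumina sequencing, PSI is the read-weighted mean bin number.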

Sequence	protein stability index [1]	protein stability index [2]	protein stability index (treatment: DMSO, c terminus: native)	protein stability index (treatment: MLN4924 1 uM, 8 h, c terminus: native)
FNGDFVDRGKDSVEILMILFAFML [PPEF2]	2.62 ± 0.54	2.15 ± 0.27	–	–
VTGPDNGVRESETEQGFGEDLEDL [NFE2L1]	5.79 ± 0.27	5.62 ± 0.35	–	–
KVTDHATTALLHYQLPQMPDVVVR [MED27]	3.07 ± 0.19	3.28 ± 0.24	–	–
VQEDLEAEFQSLFSLLEELKEGML [FSD1]	2.99 ± 0.57	3.01 ± 0.53	–	–
LQAPFLPPKAPPPVIKIPECPSMG [RHOBTB1]	3.6 ± 0.23	3.53 ± 0.57	–	–
SCKADVVELLLSHADCDRRSRIEA [FEM1B]	2.42 ± 0.17	2.65 ± 0.29	–	–
VHRRGEYNVYSTFQSHEPEFDYLK [PPP2R2B]	2.97 ± 0.11	2.88 ± 0.17	–	–
HGGSLLGKKYNWSCDDLMGGGGLH [GFOD1]	2.73 ± 0.28	2.95 ± 0.27	–	–
EKQKQPRWREGTKDSHDPLPSWAE [PBXIP1]	3.01 ± 0.51	3.18 ± 1.1	–	–
KRALAEGAQIWCGEGVDKLSLPAR [ALDH8A1]	3.58 ± 0.3	3.71 ± 0.17	–	–
GSANDYKDTLGKGSSLSAPSKKTS [KRT71]	5.33 ± 0.22	5.3 ± 0.22	–	–
AHVNTLHSGTKRDPKEDVFQQNHL [PHTF1]	4.31 ± 0.15	4.28 ± 0.18	–	–
LDHCANRVLMYGSELDADHPGFKD [TPH1]	4.62 ± 0.27	4.81 ± 0.057	–	–
RFNQVLKNLLHAEFLRVQEERILH [VPS39]	2.47 ± 0.81	2.46 ± 0.38	–	–
DLDNYFTARRLLSQVRALDRFQVP [NFE2L1]	2.5 ± 0.2	2.35 ± 0.3	–	–
LELSYGFENGQKAAVVHHFESFPA [TOR1AIP2]	2.52 ± 0.58	2.42 ± 0.18	–	–
TEQAVALLRDRTGQQSDTAQLELY [SCARA5]	4.61 ± 0.16	4.42 ± 0.25	–	–
LLPLRTKVAKLLGYSTHADFVLEM [NLN]	2.22 ± 0.43	2.32 ± 0.28	–	–
GRDELGGGRRPGTSPALLQGTAEE [CDKN1A]	5.4 ± 0.34	5.41 ± 0.24	–	–
MQQLYQVQLAQQQAALQKQQEVVV [ACBD3]	2.96 ± 0.19	3.05 ± 0.22	–	–
ARQAACCVARPGTPSLLRFALASL [ZSWIM9]	2.33 ± 0.17	2.43 ± 0.32	–	–
TLRQKAEADKNDKAVKDLVVLLFE [HSP90AB1]	3.07 ± 0.39	3.12 ± 0.27	–	–
QIFANTVDNARIVLQIDNARLAAD [KRT18]	2.78 ± 0.28	2.75 ± 0.33	–	–

Sequence	protein stability index [1]	protein stability index [2]	protein stability index (treatment: DMSO, c terminus: native)	protein stability index (treatment: MLN4924 1 uM, 8 h, c terminus: native)
DGAGKTPTLGGGFHVNLGKESRAQ [BRF1]	4.63 ± 0.14	4.77 ± 0.34	–	–
KEAAEAIEAEGATAPLTELLHSRN [CTNNB1]	5.38 ± 0.28	5.28 ± 0.11	–	–
RQKIWNNMPKDHPVSCCLGLLLES [DYNC2LI1]	2.25 ± 0.23	2.34 ± 0.28	–	–
GQQDQVKLHDFFSYLMDHFIPSSH [PPEF2]	2.81 ± 0.57	2.89 ± 0.71	–	–
LHSGLVHGLAFWFDVAFIGSIMTV [CARM1]	3.87 ± 0.46	3.56 ± 1.3	–	–
GNFDWVGNDFTQNAGTGLVINQAD [PLD5]	4.7 ± 0.69	4.47 ± 0.27	–	–
VGGFDGTTYLKTIEVFDPDANTWR [KLHL20]	2.91 ± 0.12	2.92 ± 0.32	–	–
PLLSASVTGHTNIVDFLTHHAQTS [FEM1C]	3.11 ± 0.27	3.11 ± 0.23	–	–
GEQEHSQQKEEEEEMAVVPQGLFR [CHGA]	5.45 ± 0.43	5.55 ± 0.28	–	–
TDILPQMITLSEAYIQIWKRRDND [USP39]	2.82 ± 0.25	2.79 ± 0.14	–	–
MRVGPVRSAMSGASQPRGPALLFP [TRIB1]	3.48 ± 0.65	3.08 ± 0.24	–	–
DVGDWRKNIEEKSGMEGRKKMFES [TNNI2]	4.3 ± 0.14	4.38 ± 0.25	–	–
ERFHGVGILGFNSAEWFITAVGAI [ACSBG2]	2.75 ± 1.1	2.78 ± 1.3	–	–
ADTEEPTKDPDVAFHGLSLGLSLT [PSD2]	4.37 ± 0.25	4.44 ± 0.27	–	–
KGFGFVTMTNYDEAAMAIASLNGY [ELAVL3]	2.34 ± 0.13	2.37 ± 0.1	–	–
LVQHGVKPQEIVQVEIFSTNPDLY [IQUB]	2.15 ± 0.21	2.32 ± 0.33	–	–
NGATDDSKTNLIVNYLPQNMTQDE [ELAVL3]	5.08 ± 0.29	5.21 ± 0.041	–	–
EDEDPEEMPKSSDFLIHPPERSDL [PCDHGC5]	5.41 ± 0.13	5.4 ± 0.24	–	–
AAFYKGYVPNMLGIIPYAGIDLAV [SLC25A25]	2.78 ± 0.45	3.31 ± 0.57	–	–
YCKNESGSRSNGMWAHSMTVQDYQ [ATE1]	2.35 ± 0.45	2.7 ± 0.37	–	–
LDQALKEGGKLPPPPPPSYDPDYI [ZC2HC1A]	4.95 ± 0.16	4.89 ± 0.16	–	–
VPSEWLSSVYKQQWFAMLRAEQDS [GMCL1]	2.47 ± 0.19	2.43 ± 0.17	–	–
SVRMRRAEKSVAPSNTGSRTTSVR [NEK8]	4.62 ± 0.24	4.6 ± 0.26	–	–

Sequence	protein stability index [1]	protein stability index [2]	protein stability index (treatment: DMSO, c terminus: native)	protein stability index (treatment: MLN4924 1 uM, 8 h, c terminus: native)
ILRKLPQQREKLSLIRKHAQTFIA [CCND2]	2.3 ± 0.14	2.42 ± 0.41	–	–
RYPVCKFPSLQVTAILIECGADVN [FEM1C]	2.71 ± 0.72	2.65 ± 0.61	–	–
PRLKEDQPWMVIEGIRQTEYTLTG [FSD1]	3.18 ± 0.34	3.12 ± 0.19	–	–
DCTETIEGLELTEQTFSPAKSLSF [ADD1]	4.16 ± 0.36	4.21 ± 0.26	–	–
WTRNPDDITQEEYGEFYKSLTNDW [HSP90AB1]	3.81 ± 0.15	3.82 ± 0.41	–	–
AAHAAQAHRERNEFPEDPEFEAVV [PI4K2A]	5.29 ± 0.66	5.3 ± 0.28	–	–
SLDWETFEQYCAWQLFLAHNIPLE [INTS3]	2.3 ± 0.43	2.16 ± 0.32	–	–
HISNQKMPTGPPEDRLSLKFLPSS [DRICH1]	3.21 ± 0.14	3.44 ± 0.12	–	–
TQPGIRRARDKALSGGKRKETLV [NET1]	–	–	4.29 ± 0.3	4.15 ± 0.38
KQPPVTQSKTASDKSPSTVRDQGP [FBF1]	5.29 ± 0.17	5.27 ± 0.091	–	–
SSSSQIGNDSFQLQVTEDVNSSIK [CLCN6]	5.14 ± 0.06	4.87 ± 0.18	–	–
PRSSLAESFFVDYEENEGAGPYLL [ADAMTSL2]	3.91 ± 0.17	3.82 ± 0.17	–	–
GVAGGLNRNQGLNRLMLAVRDMMA [TCF25]	3.12 ± 0.38	3.02 ± 0.36	–	–
SGGPPPKRSAPSGPVRSSSGMGGR [RBMX]	4.59 ± 0.29	4.51 ± 0.21	–	–
PSLYSSYHQGCLVNPTGNLPMWSN [NANOGP8]	2.39 ± 0.073	2.37 ± 0.096	–	–
LESYEDIHGTLHLERLAYLHARLR [PRAME]	2.41 ± 0.18	2.61 ± 0.29	–	–
PELKSLAKTFHLVNPNGQKQQLVD [FAN1]	4.05 ± 0.07	4.2 ± 0.22	–	–
NASHKLEVRLVPVSFEDPEFKSSF [ATE1]	2.65 ± 0.25	3.18 ± 0.19	–	–
RSGIQFGSWGSFQLPGLLNFGEFK [CLCN6]	2.29 ± 0.26	2.4 ± 0.3	–	–
WAMRRSYEAIAKHNQVEAAWLEGR [TRIM35]	2.37 ± 0.12	2.73 ± 0.3	–	–
NWPARQRGTHAVVGVATARAPLHS [SPSB4]	3.52 ± 0.19	3.57 ± 0.27	–	–
RENSSDSPKELKRRNSSSSMSSRL [DLC1]	5.13 ± 0.23	5.05 ± 0.3	–	–
YFKEAELKDLLLQVGRGLRYIHSM [WEE1]	2.48 ± 0.8	2.15 ± 0.34	–	–

Sequence	protein stability index [1]	protein stability index [2]	protein stability index (treatment: DMSO, c terminus: native)	protein stability index (treatment: MLN4924 1 uM, 8 h, c terminus: native)
RILQEKLDQPVSAPPSPRDISMEI [CCDC6]	3.68 ± 0.33	3.87 ± 0.25	–	–
KMSNSFHGIRPPQLEQPEKMPVLK [RHOBTB3]	4.33 ± 0.16	4.34 ± 0.068	–	–
RGYIKPHVDSIKFCGATIAGLSLL [ALKBH7]	2.52 ± 0.41	2.39 ± 0.63	–	–
MEMAKFRYILPVYGICREPVGLVM [RIPK4]	2.69 ± 0.39	3.08 ± 0.86	–	–
RFPLQEENSVTHHEVKCQGKPLAG [KMT5A]	4.69 ± 0.27	4.55 ± 0.38	–	–
KSKWDEEWDKNKSAFPFSDKLGEL [CLINT1]	3.82 ± 0.31	3.85 ± 0.21	–	–
LLAGGEKATMQNLNDRLASYLDKV [KRT17]	2.84 ± 0.17	3.08 ± 0.31	–	–
CGKAFYKKYRLTEHERAHRGEKPH [ZNF649]	3.03 ± 0.33	3.18 ± 0.18	–	–
SNPELDVLLLGSVDGRHLLRTLSR [DNAAF3]	2.5 ± 0.28	2.56 ± 0.32	–	–
IGGAAPSLGALDLLGPATGCLLDD [SERTAD1]	4.28 ± 0.19	4.17 ± 0.2	–	–
APAAPMVSKGAESSRSSEESSSDS [BRD3]	5.59 ± 0.19	5.63 ± 0.18	–	–
RKYFADLAMNYKHGDPIPKVEFTE [TPH1]	3.31 ± 0.32	3.3 ± 0.24	–	–
TKKRKLGKNPDVDTSFLPDRDREE [FAM50A]	5.18 ± 0.14	5.23 ± 0.41	–	–
KKIYCRICMAQIAYSGNTSNLSYH [ZBED1]	2.19 ± 0.28	2.13 ± 0.3	–	–
KLLSVIVWMLMLLLAVPNIILTNQ [P2RY14]	2.79 ± 0.47	3.21 ± 0.41	–	–
SSSRNSHLVQHQHPNSRKSSAGGA [ZNF8]	4.71 ± 0.43	4.83 ± 0.23	–	–
SRGSRRRRRQRSEKKKAHYRQSSF [KCNA4]	4.6 ± 0.29	4.8 ± 0.17	–	–
IIPTPDEEEKILRVKLEEDPDGEE [ZNF24]	5.44 ± 0.4	5.52 ± 0.57	–	–
PSRRSENRVVVSGLPPSGSWQDLK [SRSF1]	3.89 ± 0.33	4.21 ± 0.22	–	–
REEMKLKECVSILPRKESPSVRSS [TNFSF13B]	4.61 ± 0.14	4.73 ± 0.2	–	–
